Data as given in publication PMC10120734.

Molecular target: free UbcH8 (Ube2L6), GST tag removed (human)
Assay: SAXS

stoichiometry N: 2
Substance: free UbcH8 (Ube2L6), GST tag removed (enzyme)
